The source of these data is publication PMC4838342 (Nucleic Acids Research, 2015).

One assay concerns the target H3 115–135 peptide. The assay is described as follows: NMR titration; 1H-15N HSQC of 15N-labelled sNASP (41–330, Δ101–159) titrated with H3 115–135 peptide in PBS; 298 K; assignments in 20 mM NaPO4 pH 7.0, 100 mM NaCl, 5 mM β-mercaptoethanol. To be noted: both partners purified.
In another assay the target is MBP H3 116–135 (human). The assay is described as follows: SEC; analytical gel filtration, Superdex S200 10/300 GL, 20 mM Hepes-KOH pH 7.5, 200 mM sodium chloride; fractions on SDS-PAGE, Coomassie. The note with it: both partners purified. Background: In gel filtration, larger molecules generally elute earlier.

H3 115–135 peptide, sequence (peptide, as listed by the source): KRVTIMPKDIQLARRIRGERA

B1: sNASP (41–330, Δ101–159) (domain or fragment)
chain: SEAKKLLGLGQKHLVMGDIPAAVNAFQEAASLLGKKYGETANECGEAFFFYGKSLLELARLENKSLQENEEEEIGNLELAWDMLDLAKIIFKRQETKEAQLYAAQAHLKLGEVSVESENYVQAVEEFQSCLNLQEQYLEAHDRLLAETHYQLGLAYGYNSQYDEAVAQFSKSIEVIENRMAVLNEQVKEAEGSSAEYKKEIEELKELLPEIREKIEDAKESQRSGNVAELA
modifications: 15N (and 13C, 2H) isotope labelled
Take B1: the binding result in the assay with H3 115–135 peptide is “binds”.

B2: Sim3 (as used in gel filtration) (natural protein, Schizosaccharomyces pombe, UniProt Q9USQ4 1-396, looked up)
chain: MSSDTKTLENSKGNSATDADTKNPSSSDSRAIEQLVTQGNMAYAQKNYEEAVDKYGQALMQSESIHGSESLENRNVLWLYGKSLFQIAIENSQVLGNALGAKESVSQATESFEEPEAIGSFTFSGQKIENKYTVNEENSSIAHPEKESEEKETNEASPASEEDEDDFNVAWEVLDLTRVMQSKAVDAYPDSKDEKIRLADIYDLLGELSLEIENFSQASQDLKTALEWKEKVYNVSNNTLLSEAHYKLALALEFTNPEDPSNKSRACEHVEKAAEILKNVLNERENEVTDKKGKGKQKAEESTLTSDLENLREMLSELEQKTLDLKHGAPSLEEAVMSKMHESSLLSKDSSSLAQAVAEAVKNANDLGGLVKRKRTKQEVTSSSQKEGPKDKKKKD
notes: source: bacteria, purified
With B2, the binding result with MBP H3 116–135 is “binds”.
